Measurements published in US12018084B2, “Anti-CXCR2 antibodies and uses thereof” (Cephalon LLC, priority 2018, dated 2024).
One block for each molecule: values may come before it.

Columns and labels:
Human CXCR2 [1] = target: T1, Human CXCR2 (Homo sapiens, UniProt P25025); test: Tango CXCR2-bla U2OS cell-based β-arrestin recruitment assay; parameters: The beta-arrestin/TEV protease fusion and the beta-lactamase reporter are separate parts of the cell line; conditions: human agonist potency
T1 sequence (P25025 1-360): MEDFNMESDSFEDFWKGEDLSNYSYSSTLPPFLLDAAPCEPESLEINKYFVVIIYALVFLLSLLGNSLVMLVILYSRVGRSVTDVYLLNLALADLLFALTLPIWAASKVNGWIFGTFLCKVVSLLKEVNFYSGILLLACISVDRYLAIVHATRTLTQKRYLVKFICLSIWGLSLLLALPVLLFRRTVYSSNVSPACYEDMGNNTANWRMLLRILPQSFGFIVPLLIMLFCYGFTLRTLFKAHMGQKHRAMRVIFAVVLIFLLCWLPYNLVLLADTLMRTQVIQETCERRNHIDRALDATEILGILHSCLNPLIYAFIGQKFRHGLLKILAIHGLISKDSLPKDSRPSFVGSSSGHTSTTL
From the text: Cells were thawed, propagated, cultured and frozen according to the manufacturer's directions.
Preparation of Tango™ CXCR2-bla U2OS cells for use in cell-based assays: The manufacturer's protocol was altered to make use of 96-well plates instead of 384-well plates. Briefly, dividing cells were harvested one day prior to use. Cells were harvested and resuspended in assay medium (100% FreeStyle™ Expression Medium; Life Technologies; Cat #12338-018) at a viable cell density of 312,500 cells/mL. 128 μL of cell suspension was added per well in 96-well black-walled, clear bottom tissue culture-treated plates. Cells were incubated for 16-20 hrs at 37° C. in an atmosphere of 5% CO2 prior to use in assays.
Tango™ assay procedure: Assays were set up and run as described in the manufacturer's protocol. For antagonist assays, agonists were used at concentrations in the EC50-EC80 range. Assays were read using a FlexStation® 3 (Molecular Devices) fluorescence plate reader configured with the parameters given in Table 4. The blue/green emission ratio for each well was calculated by dividing the blue emission values by the green emission values. All inhibition curves were fitted using a four-parameter dose-response using GraphPad Prism™ (Version 7.01).
The Human CXCR2 Tango™ cell line was used to assess the ability of antibody BKO-4A8-101c to inhibit β-arrestin recruitment to agonist-activated CXCR2. All human ELR+ chemokine CXCR2 ligands were tested in antagonist dose response assays using calculated EC50 values of agonist.
The commercially available reporter cell line Tango™ CXCR2-bla U2OS (ThermoFisher Scientific) was used to assess the ability of the anti-CXCR2 antibodies to inhibit β-arrestin recruitment to agonist-activated CXCR2. Agonists were provided at their assay EC50 concentration for antagonist assays.

Human CXCR2 [2] = target: T1, Human CXCR2; test: Calcium flux assay, HTS002C-CHEMISCREEN human CXCR2 calcium-optimized cell line; type: cell-based; conditions: human agonist potency
Protocol: One of the signaling pathways downstream of CXCR2 activation that has a role in cell chemotaxis is characterized by calcium mobilization (flux). The ability of BKO-4A8-101c to inhibit human CXCR2 ligand-induced calcium flux was tested in the commercially available HTS002C-CHEMISCREEN™ human CXCR2 chemokine receptor calcium-optimized cell line.
The Fluo-4 NW calcium assay kit (Life Technologies) was used according to manufacturer's protocol for in-cell measurement of calcium mobilization, which was read using a FLIPR Tetra high-throughput cellular screening system (Molecular Devices). The peak response minus the basal response from each well was used to determine inhibition dose response curves fitting a four-parameter logistic equation and IC50 values.

[3] = target: T2, native human CXCR2 expressed by human neutrophils (Homo sapiens, UniProt P25025); test: Flow cytometry binding to human blood cells (neutrophils, monocytes, PBMC preparations); conditions: FIG. 2, MFI
T2 construct: native human CXCR2 expressed by human neutrophils; endogenous in cells; host or cells: human peripheral blood cells (buffy coat, PBMC-enriched fractions, anticoagulated blood): neutrophils, monocytes
T2 sequence (P25025 1-360): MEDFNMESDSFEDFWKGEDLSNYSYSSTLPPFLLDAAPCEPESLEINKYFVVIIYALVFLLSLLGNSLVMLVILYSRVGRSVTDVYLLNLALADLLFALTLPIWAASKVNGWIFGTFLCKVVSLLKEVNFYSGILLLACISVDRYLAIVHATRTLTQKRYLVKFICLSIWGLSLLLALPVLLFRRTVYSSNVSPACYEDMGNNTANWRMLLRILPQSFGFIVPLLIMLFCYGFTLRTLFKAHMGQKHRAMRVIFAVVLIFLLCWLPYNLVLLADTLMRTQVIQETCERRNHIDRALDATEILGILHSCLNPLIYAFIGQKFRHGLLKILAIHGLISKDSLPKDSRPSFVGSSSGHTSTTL
Protocol: (§1) Whole human buffy coat, PBMC enriched fractions prepared from human peripheral blood buffy coat or cynomolgus monkey whole blood was used for analysis of antibody binding activity by flow cytometry. Briefly, blood was untreated or diluted 1:1 in sterile filtered room temperature phosphate-buffered saline (PBS). 30 mL samples were layered over 15 mL Lymphoprep™ (Stem Cell Technologies, cat #07851). Peripheral blood mononuclear cells (PBMC) were enriched by room temperature centrifugation at 700 g for 30 minutes with no braking. The PBMC layer was isolated and cells washed in PBS containing 2 mM EDTA with low speed centrifugation at 200 g, to remove platelet contamination. Whole blood or PBMC enriched cell fractions were resuspended in red blood cell lysing solution (BioLegend, 420301). Viable cell counts were determined and cells resuspended at 1×10^7 cells per mL in FACS buffer (1×PBS+0.5% (w/v) BSA+2 mM EDTA pH 7.2).
(§2) Flow cytometry binding assays using whole blood or PBMC enriched preparations: Binding assays to detect CXCR2 on blood neutrophil populations using test antibodies were performed essentially as described for assays using transiently transfected Expi293F™ cells. Binding of antibodies to human CXCR2 on the surface of the neutrophils was measured using anti-CXCR2 antibody directly conjugated to the fluorophore allophycocyanin (APC). Matched isotype control antibodies were included for comparison. Cells were incubated with lineage specific antibodies and 2 μg/ml of APC conjugated anti-CXCR2 antibody or isotype control prepared in ice cold 3% BSA/PBS for a minimum of 30 minutes at 4° C. The commercial anti-CXCR2 antibody (clone 48331 (R&D Systems FAB331A)) was used as a positive control. Neutrophil populations were identified by characteristic granularity and size, and positive binding of commercially available antibodies against CD10 (Biolegend, clone H110a, catalogue number 312204). Cells were washed and fixed (BioLegend Fixation buffer, 420801) prior to analysis. The level of fluorescence on the cell surface was measured by flow cytometry. Using this method, test anti-CXCR2 antibodies were detected binding neutrophils from both human and cynomolgus monkey.
To further characterize the anti-CXCR2 antibody BKO-4A8-101c, the ability to bind CXCR2 on neutrophils was tested on anticoagulated human blood. Binding was measured using BKO-4A8-101c directly conjugated to fluorophore APC. Matched isotype control antibodies conjugated to APC were included for comparison. Cells were incubated with lineage-specific antibodies and 2 μg/mL of APC conjugated anti-CXCR2 antibody or isotype control. The level of fluorescence on the cell surface was measured by flow cytometry. […]

[4] = tested on: native cynomolgus CXCR2 expressed by cynomolgus neutrophils; test: Flow cytometry binding to cynomolgus blood neutrophils; parameters: species or system cynomolgus monkey; conditions: FIG. 2, MFI
Chain of native cynomolgus CXCR2 expressed by cynomolgus neutrophils (as listed by the source): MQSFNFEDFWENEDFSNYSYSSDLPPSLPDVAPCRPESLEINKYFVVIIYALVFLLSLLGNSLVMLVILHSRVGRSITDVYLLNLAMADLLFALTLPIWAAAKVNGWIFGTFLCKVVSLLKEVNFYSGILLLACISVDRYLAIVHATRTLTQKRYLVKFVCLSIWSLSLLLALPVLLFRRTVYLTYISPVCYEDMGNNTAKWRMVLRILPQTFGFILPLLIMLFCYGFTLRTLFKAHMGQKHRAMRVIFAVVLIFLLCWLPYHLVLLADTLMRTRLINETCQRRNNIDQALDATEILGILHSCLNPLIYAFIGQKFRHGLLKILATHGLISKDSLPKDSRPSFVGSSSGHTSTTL
Protocol: as §1
as §2, with “Neutrophil populations were identified by characteristic granularity and size, and positive binding of commercially available antibodies against CD10 (Biolegend, clone H110a, catalogue number 312204). Cells were washed and fixed (BioLegend Fixation buffer, 420801) prior to analysis.” left out

Human CXCR2 [5] = target: T1, Human CXCR2; test: Flow cytometry binding assay, Expi293F cells transiently transfected with human CXCR2; parameters: host or cells: Expi293F cells, vector pTT5; conditions: for CXCR2 binding activity versus parental BKO-4A8: combinatorial variants with light chain c; for Fold change in binding relative to BKO-4A8: point variant chain co-expressed with parental other chain
Protocol: For each 10 mL transfection, lipid-DNA complexes were prepared by diluting 10 μg of plasmid DNA in Opti-MEM™ I Reduced Serum Medium (Cat. no. 31985-062) to a total volume of 1.0 mL. 54 μL of ExpiFectamine™ 293 Reagent was diluted in Opti-MEM™ I medium to a total volume of 1.0 mL. Transfections were carried out according to manufacturer's instructions. The cells were incubated in a 37° C. incubator with a humidified atmosphere of 8% CO2 in air on an orbital shaker rotating at 200 rpm. Approximately 18-24 hours post-transfection, the cell viability was evaluated and transfected cells harvested for use.
Harvested cells were resuspended in FACS buffer (1×PBS+0.5% (w/v) bovine serum albumin (BSA)+2 mM EDTA pH 7.2). Approximately 2×10^5 cells were added per well in a 96-well round-bottomed plate. Cells were pelleted by centrifugation at 400 g for 5 mins at 4° C. and supernatants discarded. 25 μL of each test antibody or control antibody was added to the cells and incubated for 30 minutes at 4° C. Cells were washed twice in 100 μL FACS buffer followed by centrifugation at 400 g for 5 mins at 4° C.
For detection, 50 μL of secondary antibody (Table 2) was added to relevant samples. Commercially available antibodies that bound to transfected CXCR family members were used as positive controls to ensure that the cells were expressing the receptors. Cells were washed twice in 200 μL of FACS buffer followed by centrifugation at 400 g for 5 mins at 4° C. Before sample acquisition, cells were resuspended in 100 μL of FACS buffer. Samples were acquired using the high throughput sampler on a FACSCanto™ II cytometer (Beckton-Dickinson).
Binding of BKO-4A8 and variants thereof was detected by incubation of fluorochrome-conjugate anti-human IgG light chain lambda antibody. The binding activity of antibodies tested, quantified as mean fluorescent intensity, was independent of the antibody Fc region as illustrated in FIG. 9.

B3: 102c: VH SEQ ID NO: 162, VL SEQ ID NO: 110 (antibody, V domains shown)
VH: EVQLLESGGGLVQPGGSLRLSCAASGFTFSSSTQSWVRQPPGKGLEWVSAISGRGRSTYYADSVKGRFTISRDNSKNTLYLQMNSLRAEDTAVYYCAIQEGYWGQGILVTVSS
VL: QSALTQPPSASGSPGQSVTISCIGTSSDVGGYNYVSWYQQHPGKAPKLMIYEVSKRPSGVPDRFSGSKSGNTASLTVSGLQAEDEADYYCSSYAGSNNFGVFGGGTKLTVL
modifications: 4A8 VH Variant 102 M34Q_A40P_N56S_R75K_M96E; 4A8 VL variant c D41G_N52S_N94S
CXCR2 binding activity versus parental BKO-4A8 (Human CXCR2 [5]): reduced

B4: Y91A: BKO-4A8 point variant, VL SEQ ID NO: 83 (antibody, V domains shown)
VL: QSALTQPPSASGSPGQSVTISCIGTSSDVGGYNYVSWYQQHPDKAPKLMIYEVNKRPSGVPDRFSGSKSGNTASLTVSGLQAEDEADYYCSSAAGNNNFGVFGGGTKLTVL
modifications: VH not cited; 4A8 VL Y91A
Fold change in binding relative to BKO-4A8 (Human CXCR2 [5]): 1.7

B5: V97A: BKO-4A8 point variant, VL SEQ ID NO: 96 (antibody, V domains shown)
VL: QSALTQPPSASGSPGQSVTISCIGTSSDVGGYNYVSWYQQHPDKAPKLMIYEVNKRPSGVPDRFSGSKSGNTASLTVSGLQAEDEADYYCSSYAGNNNFGAFGGGTKLTVL
modifications: VH not cited; 4A8 VL V97A
Fold change in binding relative to BKO-4A8 (Human CXCR2 [5]): 1.7

B6: V97K: BKO-4A8 point variant, VL SEQ ID NO: 97 (antibody, V domains shown)
VL: QSALTQPPSASGSPGQSVTISCIGTSSDVGGYNYVSWYQQHPDKAPKLMIYEVNKRPSGVPDRFSGSKSGNTASLTVSGLQAEDEADYYCSSYAGNNNFGKFGGGTKLTVL
modifications: VH not cited; 4A8 VL V97K
Fold change in binding relative to BKO-4A8 (Human CXCR2 [5]): 1.0

Second part, led by results:

EC50 (Human CXCR2 [1]): 39.6 nM
EC50 (Human CXCR2 [2]): 7.14 nM
B1: CXCL7: human agonist chemokine, R&D Systems 393-NP (protein)
chain: AELRCMCIKTTSGIHPKNIQSLEVIGKGTHCNQVEVIATLKDGRKICLDPDAPRIKKIVQKKLAGDESAD

binding to native human CXCR2 on human PBMCs / neutrophils [3]: high binding activity
B2: BKO-8G3_b: recombinant, VH SEQ ID NO: 41, VL SEQ ID NO: 42 (antibody, V domains shown)
VH: EVQLLESGGGLVQPGGSLRLSCAASGFTFSSYAMSWVRQAPGKGLEWVSAITGSGGSTYYADSVKGRFTISRDKSKNTLYLQMNSLRAEDTAVYYCAIRLGYWGQGSLVTVSS
VL: QSALTQPPSASGSPGQSVTISCTGTSSDVGGYNYVSWYQQHPGKVPKLVIYEVSKRPSGVPDRFSGSKSGNTASLTVSGLQAEDEADYYCSSYAGSNNFGVFGGGTKLTVL
modifications: BKO_8G3_H4_D04_VH; BKO_8G3_L1_G01_VL
binding to native cynomolgus CXCR2 on cynomolgus PBMCs / neutrophils [4]: high binding activity

CXCR2 binding activity versus parental BKO-4A8 (Human CXCR2 [5]): reduced
B7: 106c: VH SEQ ID NO: 166, VL SEQ ID NO: 110 (antibody, V domains shown)
VH: EVQLLESGGGLVQPGGSLRLSCAASGFTFSSSTQSWVRQPPGKGLEWVSAISGSGGSTYYADSVKGRFTISRDNSKNTLYLQMNSLRAEDTAVYYCAIQEGYWGQGILVTVSS
VL: QSALTQPPSASGSPGQSVTISCIGTSSDVGGYNYVSWYQQHPGKAPKLMIYEVSKRPSGVPDRFSGSKSGNTASLTVSGLQAEDEADYYCSSYAGSNNFGVFGGGTKLTVL
modifications: 4A8 VH Variant 106 M34Q_A40P_R53S_R55G_N56S_ R75K_M96E; 4A8 VL variant c D41G_N52S_N94S
